The values below come from patent US20180369334A1 (Stanford University, published 2018).

Assay [1] deals with human endothelial cells (HUVECs). As to the kind of experiment: binding to HUVEC; the column prints only 'HUVEC (nM)'.
In assay [2] the target is T1, VEGFR2 (on PAE-VEGFR2 cells) (UniProt P35968 20-1356, limits assumed).
T1 construct: whole, on cells
As to the kind of experiment: binding to PAE-VEGFR2 cells; the column prints only 'VEGFR2 (nM)'.

In assay [3] the target is T2, VEGFR1 (on PAE-VEGFR1 cells) (UniProt P17948 27-1338, limits assumed).
T2 construct: whole, on cells
The assay can be described thus: binding to PAE-VEGFR1 cells; the column prints only 'VEGFR1 (nM)', the text calls it an affinity.

The target of assay [4] is human endothelial cells (HUVECs). The assay can be described thus: cell binding assay on human endothelial cells.

T2 sequence (P17948 27-1338 limits assumed): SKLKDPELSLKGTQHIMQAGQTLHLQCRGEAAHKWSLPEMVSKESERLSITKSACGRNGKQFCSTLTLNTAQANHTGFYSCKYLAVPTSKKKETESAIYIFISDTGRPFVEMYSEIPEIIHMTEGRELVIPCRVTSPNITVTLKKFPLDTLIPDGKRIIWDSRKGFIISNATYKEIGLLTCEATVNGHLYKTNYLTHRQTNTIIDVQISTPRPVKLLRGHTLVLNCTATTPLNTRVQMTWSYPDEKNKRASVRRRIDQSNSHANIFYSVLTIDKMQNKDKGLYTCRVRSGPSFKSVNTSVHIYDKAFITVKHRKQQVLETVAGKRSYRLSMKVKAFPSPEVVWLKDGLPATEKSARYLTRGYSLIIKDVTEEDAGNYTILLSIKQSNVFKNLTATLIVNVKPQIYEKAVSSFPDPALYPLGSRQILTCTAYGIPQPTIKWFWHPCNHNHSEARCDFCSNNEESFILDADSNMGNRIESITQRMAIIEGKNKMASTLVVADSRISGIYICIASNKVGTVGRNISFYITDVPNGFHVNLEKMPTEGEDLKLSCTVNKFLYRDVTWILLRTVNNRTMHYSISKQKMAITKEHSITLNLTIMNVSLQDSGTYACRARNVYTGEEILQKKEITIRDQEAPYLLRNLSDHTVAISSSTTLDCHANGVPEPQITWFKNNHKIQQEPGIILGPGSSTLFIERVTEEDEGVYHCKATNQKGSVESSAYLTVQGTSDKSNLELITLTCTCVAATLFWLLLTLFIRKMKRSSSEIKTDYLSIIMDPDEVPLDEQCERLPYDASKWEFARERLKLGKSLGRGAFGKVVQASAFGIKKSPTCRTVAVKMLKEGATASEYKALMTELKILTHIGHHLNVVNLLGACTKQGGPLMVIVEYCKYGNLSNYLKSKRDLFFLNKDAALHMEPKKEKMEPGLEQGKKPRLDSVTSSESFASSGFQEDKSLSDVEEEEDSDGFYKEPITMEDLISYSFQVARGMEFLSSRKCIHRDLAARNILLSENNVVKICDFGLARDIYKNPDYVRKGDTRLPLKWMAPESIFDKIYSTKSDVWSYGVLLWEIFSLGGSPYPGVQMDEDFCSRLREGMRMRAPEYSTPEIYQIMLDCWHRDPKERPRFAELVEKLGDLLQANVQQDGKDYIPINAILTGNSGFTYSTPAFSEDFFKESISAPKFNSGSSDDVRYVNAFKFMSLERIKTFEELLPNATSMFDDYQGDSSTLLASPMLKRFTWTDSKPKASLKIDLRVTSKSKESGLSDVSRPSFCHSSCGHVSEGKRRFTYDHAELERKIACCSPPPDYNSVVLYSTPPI
T1 sequence (P35968 20-1356 limits assumed): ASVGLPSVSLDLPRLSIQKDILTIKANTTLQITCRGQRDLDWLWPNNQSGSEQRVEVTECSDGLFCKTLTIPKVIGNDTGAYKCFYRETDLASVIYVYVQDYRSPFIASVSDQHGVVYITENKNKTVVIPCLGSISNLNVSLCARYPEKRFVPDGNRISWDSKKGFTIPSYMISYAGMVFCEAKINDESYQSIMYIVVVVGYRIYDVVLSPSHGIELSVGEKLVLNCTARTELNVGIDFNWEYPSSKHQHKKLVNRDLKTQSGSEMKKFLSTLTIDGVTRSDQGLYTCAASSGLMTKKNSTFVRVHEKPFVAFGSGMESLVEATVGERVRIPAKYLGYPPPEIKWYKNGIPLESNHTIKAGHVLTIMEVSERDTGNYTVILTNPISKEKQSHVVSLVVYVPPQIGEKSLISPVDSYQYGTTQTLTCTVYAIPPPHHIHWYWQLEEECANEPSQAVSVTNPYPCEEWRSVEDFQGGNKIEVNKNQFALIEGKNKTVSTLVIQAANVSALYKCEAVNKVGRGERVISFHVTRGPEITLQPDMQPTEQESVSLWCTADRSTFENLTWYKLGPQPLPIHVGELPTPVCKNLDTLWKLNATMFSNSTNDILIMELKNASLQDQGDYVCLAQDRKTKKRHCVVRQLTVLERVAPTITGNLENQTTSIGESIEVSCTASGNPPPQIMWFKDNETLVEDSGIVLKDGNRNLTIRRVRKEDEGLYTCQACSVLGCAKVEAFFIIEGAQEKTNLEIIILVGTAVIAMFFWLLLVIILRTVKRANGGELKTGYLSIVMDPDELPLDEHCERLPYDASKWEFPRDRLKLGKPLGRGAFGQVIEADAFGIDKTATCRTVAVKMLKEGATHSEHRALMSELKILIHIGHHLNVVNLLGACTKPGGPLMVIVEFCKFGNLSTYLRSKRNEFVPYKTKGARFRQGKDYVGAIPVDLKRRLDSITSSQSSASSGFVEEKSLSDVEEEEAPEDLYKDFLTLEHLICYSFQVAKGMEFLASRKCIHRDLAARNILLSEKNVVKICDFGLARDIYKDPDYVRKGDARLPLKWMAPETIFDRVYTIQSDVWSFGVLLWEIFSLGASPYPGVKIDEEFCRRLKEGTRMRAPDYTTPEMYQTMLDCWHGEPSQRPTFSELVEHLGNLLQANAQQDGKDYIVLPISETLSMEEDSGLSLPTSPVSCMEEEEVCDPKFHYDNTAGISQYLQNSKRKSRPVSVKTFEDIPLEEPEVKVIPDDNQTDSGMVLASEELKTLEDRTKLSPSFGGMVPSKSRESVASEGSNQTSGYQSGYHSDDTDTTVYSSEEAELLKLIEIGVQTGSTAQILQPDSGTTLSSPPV

B1: scVEGFMUT-E (mE, SEQ ID NO.: 55) (ligand)
chain: EVVKAMDVYQRSYCHPIETLVDILQEYPDEIGYIFKPSCVPLMRCGGCCNGAGLECVPTEESNITMQIMRIKPHRGQHIGEMSFLQHNKCECRPKKDGSTSGSGKSSEGKGEVVRFMDVYQRSYCHPIETLVDIFQEYPNEIEYAFKPSCVPLMRCGGCCNNEGLECVPTEESNITMQIMRAKPHQGQHIGEMSFLQHNKCECRPKKD
notes: Chain 1: F36L, E44G, D63G, Q87R; also called scVEGFmE
The term Kd denotes the equilibrium constant for the complex coming apart. As for B1, the Kd was found to be 0.4 nM in assay [1], 0.5 nM in assay [2] and 0.55 nM in assay [3].

B2: scVEGF-mE7I (SEQ ID NO: 75), construct with the original linker (ligand)
chain: EVVKAMDVYQRSYCHPIETLVDILQEYPDEIGYIFKPSCVPLMRCGGCCNGAGLECVPTEESNITMQIMRIKPHRGQHIGEMSFLQHNKCECRPKKDGGGGSGGGGSGGGGSGGGGSEVVRFMDVYQRSYCHPIETLVDIFQEYPNEIEYAFKPSCVPLMRCGGCCNNEGLECVPTEESNITMQIMRPSVRRGDSPASHIGEMSFLQHNKCECRPKKD
In turn, B2 returned a Kd in assay [4] of 0.32 nM.

B3: scVEGF-mE7I construct containing the L3A linker (ligand)
chain: EVVKAMDVYQRSYCHPIETLVDILQEYPDEIGYIFKPSCVPLMRCGGCCNGAGLECVPTEESNITMQIMRIKPHRGQHIGEMSFLQHNKCECRPKKDGGGGSGGGGSGGGGSGGGGSEVVRFMDVYQRSYCHPIETLVDIFQEYPNEIEYAFKPSCVPLMRCGGCCNNEGLECVPTEESNITMQIMRPSVRRGDSPASHIGEMSFLQHNKCECRPKKD
In assay [4], B3 came in with a Kd of 0.16 nM and a fold improvement of KD against the construct with the original linker of 2 fold.
